{
  "source": "IntAct's records for PubMed 35512704",
  "parents": {"B1": {"name": "Mothers against decapentaplegic homolog 4 (Homo sapiens), Q13485 (parent)", "chain": "MDNMSITNTPTSNDACLSIVHSLMCHRQGGESETFAKRAIESLVKKLKEKKDELDSLITAITTNGAHPSKCVTIQRTLDGRLQVAGRKGFPHVIYARLWRWPDLHKNELKHVKYCQYAFDLKCDSVCVNPYHYERVVSPGIDLSGLTLQSNAPSSMMVKDEYVHDFEGQPSLSTEGHSIQTIQHPPSNRASTETYSTPALLAPSESNATSTANFPNIPVASTSQPASILGGSHSEGLLQIASGPQPGQQQNGFTGQPATYHHNSTTTWTGSRTAPYTPNLPHHQNGHLQHHPPMPPHPGHYWPVHNELAFQPPISNHPAPEYWCSIAYFEMDVQVGETFKVPSSCPIVTVDGYVDPSGGDRFCLGQLSNVHRTEAIERARLHIGKGVQLECKGEGDVWVRCLSDHAVFVQSYYLDREAGRAPGDAVHKIYPSAYIKVFDLRQCHRQMQQQAATAQAAAAAQAAAVAGNIPGPGSVGGIAPAISLSAAAGIGVDDLRRLCILRMSFVKGWGPDYPRQSIKETPCWIEIHLHRALQLLDEVLHTMPIADPQPLD"}},
  "data": [
    {"variants_of": "B1", "settings": "with rnf43_human RNF43, Q68DV7", "values": [
      {"variant": "D351H", "effect of a mutation on the interaction": "with no effect"}
    ]},
    {"variants_of": "B1", "settings": "with ros1_human ROS1, P08922", "values": [
      {"variant": "D351H", "effect of a mutation on the interaction": "with no effect"}
    ]},
    {"variants_of": "B1", "settings": "with rl5_human RPL5, P46777", "values": [
      {"variant": "D351H", "effect of a mutation on the interaction": "with no effect"}
    ]},
    {"variants_of": "B1", "settings": "with runx1_human RUNX1, Q01196", "values": [
      {"variant": "D351H", "effect of a mutation on the interaction": "with no effect"}
    ]},
    {"variants_of": "B1", "settings": "with ruvb1_human RUVBL1, Q9Y265", "values": [
      {"variant": "D351H", "effect of a mutation on the interaction": "with no effect"}
    ]},
    {"variants_of": "B1", "settings": "with sdha_human SDHA", "values": [
      {"variant": "D351H", "effect of a mutation on the interaction": "with no effect"}
    ]},
    {"variants_of": "B1", "settings": "with sf3b1_human SF3B1, O75533", "values": [
      {"variant": "D351H", "effect of a mutation on the interaction": "with no effect"}
    ]},
    {"variants_of": "B1", "settings": "with skp2_human SKP2, Q13309", "values": [
      {"variant": "D351H", "effect of a mutation on the interaction": "with no effect"}
    ]},
    {"variants_of": "B1", "settings": "with smad1_human SMAD1, Q15797", "values": [
      {"variant": "D351H", "effect of a mutation on the interaction": "with no effect"}
    ]},
    {"variants_of": "B1", "settings": "with smad2_human SMAD2, Q15796", "values": [
      {"variant": "D351H", "effect of a mutation on the interaction": "with no effect"}
    ]},
    {"variants_of": "B1", "settings": "with smad3_human SMAD3, P84022", "values": [
      {"variant": "D351H", "effect of a mutation on the interaction": "with no effect"}
    ]},
    {"variants_of": "B1", "settings": "with smca4_human SMARCA4, P51532", "values": [
      {"variant": "D351H", "effect of a mutation on the interaction": "with no effect"}
    ]},
    {"variants_of": "B1", "settings": "with snf5_human SMARCB1, Q12824", "values": [
      {"variant": "D351H", "effect of a mutation on the interaction": "with no effect"}
    ]},
    {"variants_of": "B1", "settings": "with smo_human SMO", "values": [
      {"variant": "D351H", "effect of a mutation on the interaction": "with no effect"}
    ]},
    {"variants_of": "B1", "settings": "with sox10_human SOX10, P56693", "values": [
      {"variant": "D351H", "effect of a mutation on the interaction": "with no effect"}
    ]},
    {"variants_of": "B1", "settings": "with sox2_human SOX2, P48431", "values": [
      {"variant": "D351H", "effect of a mutation on the interaction": "with no effect"}
    ]},
    {"variants_of": "B1", "settings": "with sox3_human SOX3, P41225", "values": [
      {"variant": "D351H", "effect of a mutation on the interaction": "with no effect"}
    ]},
    {"variants_of": "B1", "settings": "with sox4_human SOX4, Q06945", "values": [
      {"variant": "D351H", "effect of a mutation on the interaction": "with no effect"}
    ]},
    {"variants_of": "B1", "settings": "with sox9_human SOX9, P48436", "values": [
      {"variant": "D351H", "effect of a mutation on the interaction": "with no effect"}
    ]},
    {"variants_of": "B1", "settings": "with spop_human SPOP", "values": [
      {"variant": "D351H", "effect of a mutation on the interaction": "with no effect"}
    ]},
    {"variants_of": "B1", "settings": "with src_human SRC", "values": [
      {"variant": "D351H", "effect of a mutation on the interaction": "with no effect"}
    ]},
    {"variants_of": "B1", "settings": "with stat3_human STAT3, P40763", "values": [
      {"variant": "D351H", "effect of a mutation on the interaction": "with no effect"}
    ]},
    {"variants_of": "B1", "settings": "with stk38_human STK38, Q15208", "values": [
      {"variant": "D351H", "effect of a mutation on the interaction": "with no effect"}
    ]},
    {"variants_of": "B1", "settings": "with ksyk_human SYK", "values": [
      {"variant": "D351H", "effect of a mutation on the interaction": "with no effect"}
    ]},
    {"variants_of": "B1", "settings": "with eloc_human ELOC", "values": [
      {"variant": "D351H", "effect of a mutation on the interaction": "with no effect"}
    ]},
    {"variants_of": "B1", "settings": "with tfe2_human TCF3, P15923", "values": [
      {"variant": "D351H", "effect of a mutation on the interaction": "with no effect"}
    ]},
    {"variants_of": "B1", "settings": "with tead1_human TEAD1, P28347", "values": [
      {"variant": "D351H", "effect of a mutation on the interaction": "with no effect"}
    ]},
    {"variants_of": "B1", "settings": "with tead2_human TEAD2, Q15562", "values": [
      {"variant": "D351H", "effect of a mutation on the interaction": "with no effect"}
    ]},
    {"variants_of": "B1", "settings": "with tead3_human TEAD3, Q99594", "values": [
      {"variant": "D351H", "effect of a mutation on the interaction": "with no effect"}
    ]},
    {"variants_of": "B1", "settings": "with tert_human TERT", "values": [
      {"variant": "D351H", "effect of a mutation on the interaction": "with no effect"}
    ]},
    {"variants_of": "B1", "settings": "with tgfr2_human TGFBR2, P37173", "values": [
      {"variant": "D351H", "effect of a mutation on the interaction": "with no effect"}
    ]},
    {"variants_of": "B1", "settings": "with tnr14_human TNFRSF14, Q92956", "values": [
      {"variant": "D351H", "effect of a mutation on the interaction": "with no effect"}
    ]},
    {"variants_of": "B1", "settings": "with tpx2_human TPX2, Q9ULW0", "values": [
      {"variant": "D351H", "effect of a mutation on the interaction": "with no effect"}
    ]},
    {"variants_of": "B1", "settings": "with tsc2_human TSC2, P49815", "values": [
      {"variant": "D351H", "effect of a mutation on the interaction": "with no effect"}
    ]},
    {"variants_of": "B1", "settings": "with tshr_human TSHR", "values": [
      {"variant": "D351H", "effect of a mutation on the interaction": "with no effect"}
    ]},
    {"variants_of": "B1", "settings": "with vegfa_human VEGFA", "values": [
      {"variant": "D351H", "effect of a mutation on the interaction": "with no effect"}
    ]},
    {"variants_of": "B1", "settings": "with vhl_human VHL", "values": [
      {"variant": "D351H", "effect of a mutation on the interaction": "with no effect"}
    ]},
    {"variants_of": "B1", "settings": "with wt1_human WT1, P19544", "values": [
      {"variant": "D351H", "effect of a mutation on the interaction": "with no effect"}
    ]},
    {"variants_of": "B1", "settings": "with wwtr1_human WWTR1, Q9GZV5", "values": [
      {"variant": "D351H", "effect of a mutation on the interaction": "with no effect"}
    ]},
    {"variants_of": "B1", "settings": "with xpo1_human XPO1, O14980", "values": [
      {"variant": "D351H", "effect of a mutation on the interaction": "with no effect"}
    ]},
    {"variants_of": "B1", "settings": "with 1433b_human YWHAB", "values": [
      {"variant": "D351H", "effect of a mutation on the interaction": "with no effect"}
    ]},
    {"variants_of": "B1", "settings": "with 1433e_human YWHAE", "values": [
      {"variant": "D351H", "effect of a mutation on the interaction": "with no effect"}
    ]},
    {"variants_of": "B1", "settings": "with 1433z_human YWHAZ", "values": [
      {"variant": "D351H", "effect of a mutation on the interaction": "with no effect"}
    ]},
    {"variants_of": "B1", "settings": "with arc1a_human ARPC1A", "values": [
      {"variant": "D351H", "effect of a mutation on the interaction": "causing an interaction"}
    ]}
  ]
}
